Molecular target: MBD4 (methyl-CpG binding domain protein 4) (mouse, UniProt Q9Z2D7 1-554)
Test: EMSA

Chain of MBD4 (methyl-CpG binding domain protein 4) (Q9Z2D7 whole entry, the tested form may be a part): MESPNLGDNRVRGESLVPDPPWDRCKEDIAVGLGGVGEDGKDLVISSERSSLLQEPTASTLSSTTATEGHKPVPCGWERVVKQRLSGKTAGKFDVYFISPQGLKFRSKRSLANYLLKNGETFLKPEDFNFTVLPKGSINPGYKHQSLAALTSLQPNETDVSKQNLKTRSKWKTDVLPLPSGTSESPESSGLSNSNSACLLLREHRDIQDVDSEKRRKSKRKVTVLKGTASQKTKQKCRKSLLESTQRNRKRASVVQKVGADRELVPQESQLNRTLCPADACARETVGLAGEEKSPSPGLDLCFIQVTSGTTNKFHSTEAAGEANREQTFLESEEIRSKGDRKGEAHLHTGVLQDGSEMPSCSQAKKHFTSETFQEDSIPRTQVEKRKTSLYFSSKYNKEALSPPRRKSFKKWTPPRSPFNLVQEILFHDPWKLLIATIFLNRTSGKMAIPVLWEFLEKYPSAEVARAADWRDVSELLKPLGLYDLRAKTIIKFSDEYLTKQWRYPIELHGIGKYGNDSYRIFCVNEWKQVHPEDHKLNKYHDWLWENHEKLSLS

GGTCGGGGTAGCGGCTGAATCGCTGCACGCCGTAGGTCACGCG (ssDNA, m5C at position 21 (m5CpG); 3' cgcg phosphorothioate) [m5CpGGFP ssODN alone]
binding result: no binding
